Experimental data published in PMC5662698, “Conformation transitions of the polypeptide-binding pocket support an active substrate release from Hsp70s” (Nature Communications, 2017).

B1: ERdj3 (natural protein, UniProt Q9UBS4 23-358, looked up)
chain: GRDFYKILGVPRSASIKDIKKAYRKLALQLHPDRNPDDPQAQEKFQDLGAAYEVLSDSEKRKQYDTYGEEGLKDGHQSSHGDIFSHFFGDFGFMFGGTPRQQDRNIPRGSDIIVDLEVTLEEVYAGNFVEVVRNKPVARQAPGKRKCNCRQEMRTTQLGPGRFQMTQEVVCDECPNVKLVNEERTLEVEIEPGVRDGMEYPFIGEGEPHVDGEPGDLRFRIKVVKHPIFERRGDDLYTNVTISLVESLVGFEMDITHLDGHKVHISRDKITRPGAKLWKKGEGLPNFDNNNIKGSLIITFDVDFPKEQLTEEAREGIKQLLKQGSVQKVYNGLQGY
notes: ERdj3, an Hsp40 co-chaperone of BiP in the ER; plasmid a gift of Dr. Linda Hendershot; also called Hsp40 ERdj3; source: M15 E. coli, purified (HisTrap, 2 M urea in the lysis buffer, dialysis)
B2: DnaJ (natural protein, UniProt P08622 1-376, looked up)
chain: MAKQDYYEILGVSKTAEEREIRKAYKRLAMKYHPDRNQGDKEAEAKFKEIKEAYEVLTDSQKRAAYDQYGHAAFEQGGMGGGGFGGGADFSDIFGDVFGDIFGGGRGRQRAARGADLRYNMELTLEEAVRGVTKEIRIPTLEECDVCHGSGAKPGTQPQTCPTCHGSGQVQMRQGFFAVQQTCPHCQGRGTLIKDPCNKCHGHGRVERSKTLSVKIPAGVDTGDRIRLAGEGEAGEHGAPAGDLYVQVQVKQHPIFEREGNNLYCEVPINFAMAALGGEIEVPTLDGRVKLKVPGETQTGKLFRMRGKGVKSVRGGAQGDLLCRVVVETPVGLNERQKQLLQELQESFGGPTGEHNSPRSKSFFDGVKKFFDDLTR
notes: DnaJ, the Hsp40 partner of DnaK; also called Hsp40 co-chaperone DnaJ; source: E. coli BL21(DE3) Gold, purified (HisTrap, Ulp1, HisTrap, Superdex 200); not shown: Smt3, N-terminal, cleaved; His6 (from the vector pSMT3), N-terminal, cleaved

Columns and labels:
[1] = biological target: T1, TMR-labeled BiP protein (BiP-C41A/C420A/V429C/T462C labelled with tetramethylrhodamine) (human, UniProt P11021 19-654, C41A | C420A | V429C | T462C, tetramethylrhodamine (TMR, from 5-IATR) on both introduced cysteines (V429C, T462C)); assay: other fluorescence titration; quenching of two TMR labels on BiP (called FRET by the paper); 300 nM TMR-labeled BiP, 2 mM ATP, buffer B (30 mM Tris-HCl pH 7.0, 100 mM KCl, 3 mM MgCl2, 3 mM CaCl2, 10% glycerol), room temperature, serial dilutions of ERdj3, one-site binding fit; settings: both partners purified
T1 construct: human BiP with C41A, C420A, V429C, T462C; ATP (2 mM) present in the ERdj3 experiments; also called TMR-labeled BiP FRET protein; source: E. coli BL21(DE3) Gold, purified, labelled with 5-IATR, HiTrap Q, monomer peak used; not shown: His6, N-terminal, cleaved; Smt3, N-terminal, cleaved
T1 sequence (P11021 19-654 C41A/C420A/V429C/T462C): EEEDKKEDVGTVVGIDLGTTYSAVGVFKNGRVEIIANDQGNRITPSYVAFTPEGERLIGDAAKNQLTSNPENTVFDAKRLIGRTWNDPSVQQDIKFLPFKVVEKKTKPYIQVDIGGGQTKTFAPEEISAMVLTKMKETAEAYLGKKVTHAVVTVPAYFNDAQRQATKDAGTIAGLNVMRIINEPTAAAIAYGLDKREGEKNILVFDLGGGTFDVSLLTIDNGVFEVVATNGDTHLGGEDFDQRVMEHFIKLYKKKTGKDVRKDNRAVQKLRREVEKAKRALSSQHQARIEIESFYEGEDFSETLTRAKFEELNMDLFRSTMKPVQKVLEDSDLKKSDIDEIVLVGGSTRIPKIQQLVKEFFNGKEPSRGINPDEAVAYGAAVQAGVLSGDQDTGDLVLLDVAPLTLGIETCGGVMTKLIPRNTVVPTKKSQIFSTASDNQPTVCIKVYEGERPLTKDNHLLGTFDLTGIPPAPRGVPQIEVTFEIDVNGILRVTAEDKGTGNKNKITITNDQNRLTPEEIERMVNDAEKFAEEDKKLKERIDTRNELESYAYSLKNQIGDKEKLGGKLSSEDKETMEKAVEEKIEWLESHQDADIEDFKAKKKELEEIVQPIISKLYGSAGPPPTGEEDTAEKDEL

[2] = biological target: T2, TMR-labeled DnaK (DnaK FRET construct C15A/M404C/T437C labelled with tetramethylrhodamine) (E. coli, UniProt P0A6Y8 1-638, C15A | M404C | T437C, tetramethylrhodamine (TMR, from 5-IATR) on both introduced cysteines (M404C, T437C)); assay: other fluorescence titration; quenching of two TMR labels on DnaK (called FRET by the paper); 30 nM TMR-labeled DnaK, 2 mM ATP, buffer C (30 mM Tris-HCl pH 7.5, 25 mM KCl, 3 mM MgCl2, 10% glycerol), room temperature, DnaJ added at indicated concentrations; settings: both partners purified
T2 construct: DnaK, an E. coli Hsp70, with C15A, M404C, T437C; ATP (2 mM) present in the DnaJ experiments; source: E. coli dnak deletion strain BB205 (plasmid pBB46), purified, labelled with 5-IATR, HiTrap Q, monomer peak used

Binder | Kd [1] | fold change of the dissociation constant against ERdj3-BiP [2]
B1 | 1670 ± 110 nM | –
B2 | – | ~10 times lower
